According to the supplement of paper PMC12636428:

These sequences were tested on Saccharomyces cerevisiae (assay: transcriptional activation domain activity (GFP:mCherry ratio, weighted mean of sorted bins, harmonized to initial dataset scale) (arbitrary fluorescence ratio units); higher = stronger transcriptional activation). Details: beta-estradiol 1 µM; induction time 4 h.
Method in brief: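 Activation activity, the read-weighted mean of bin median fluorescence averaged across barcodes, was linearly mapped onto the scale of the initial dataset. It was measured for barcoded protein tiles fused to an estradiol-inducible synthetic transcription factor at URA3 in GFP-reporter yeast diploids. Cultures diluted 1:5 into SC with 1 uM beta-estradiol were held 4 hours at 30 °C, sorted into 8 bins by GFP:mCherry ratio, and barcode-sequenced, and tiles under 50 reads were discarded.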

| Sequence | transcriptional activation domain activity |
| --- | --- |
| MGLVYPCWLVFFGWFPSFLFLIFLSFIINFILVFSFLLFTFIPPLFSLLSVQF | 37900 |
| SLRVDTSVTCCKLRSFSHIVTSYIEVLFLLKILREFLYADLFVHIWLALSLLA | 62700 |
| DLSKATKEVKEGGERKAAKGERETEQEKVEEGVKKLAVVDKKGGKNKTETNGS | 17700 |
| MKLVCHSLQLHFLSILVLEDLLIATLRVAQSCITAFFWRNHFSFTCLCLLTML | 63200 |
| VNDNSTGSTDSTGSTGNKNKKNNNNSDDVLPFISESPFDMNQVTNFFSPGSTG | 38600 |
| YVVLQGLSGAASGFLQIVPLIIYYVKLFLMGSTPRSVYKIKYTLRHVSWGTLF | 66600 |
| MLSLFSETGCTFLLVGLSIVVGVEKGSFLFYFVYLFTLYLYCGPILLGKLIFM | 49800 |
| MNIDAPRPRPGGDRPIRRRRRPVVACNECRRRKIACDRKSPCCQCTLHRVNCV | 44600 |
| ERDKRDDKDRERRHHKRSRHHDSDEERREGSSSRRHRHKSRRSKSPSSKVNEE | 22800 |
| MVRGLFLCFLFSCPWRLLSCCLFLQIFLFSLHLFALKIYVSFFLVHFHACFWA | 60900 |
| DRNYKRVAKQVGFTIDRKRGDDLRHFPIERARLEIIWPLLYTGLACILCYGWA | 70900 |
| GEDTAQEGGEEGATSADEEETASTTRSGRKPKKIKTAVPIKRKRRSGRGGIAA | 31200 |
| ASASASALPSSGFGATRGMKVRASVKKICEGCSSVKRRGRVFIICSKNQKHKQ | 36400 |
| GESNASLTKTLDSVLRNCFPQRSRMVLPVELPLDVFVCIVHFLLVRQFEYGQE | 49700 |
| TEQEAIQKKRKKRKIREDNGISTVLFALEEVCAIILHRMQHRNGVPHVTTLVF | 52100 |
| LANISLFTSFHQTDINWCGPTRLRWFGYCFCGMFVYYWLPGYFFQILTFFSWA | 73700 |
| PILYFLSLSLSLPPSLSLFLFLYIINQISRFWLVLFQLFFLFLFLLFPSILTS | 62800 |
| GVVWCGVIFGFVAFHILCLFDVFFSFFFFFFEFWFWFFGFVYLNGLGWVGVGW | 40100 |
| LRAYPVPQALQIAGNESVSPCLVRCLRLLTVLADLLYMHRGFFARALNDHPKD | 46700 |
| VCLNLLGGVVVCYCPGLLVIAAIEAPIRFKHIFTCSIHIHSLYLRLLFCALHA | 69200 |
| ESEEEVAAGSSANGKKQSGTRDSSKRSKKSDSKSEAKRSDKAEGAAEKTAPES | 18500 |

| Sequence | transcriptional activation domain activity |
| --- | --- |
| MASKDPVYDEKTGAPKLVAESDSSNVETGGGTPERTLHRQLKNRHIAMISIGG | 44900 |
| RFRALRLLVIDDMIRLRDQSHCGWICTFLSSIELDVIQCINFRIWINMCPEFY | 32600 |
| PGEVSEAEANGDAPKVEAAAKPKKKKKKAARKPKTKEEDGAPAAAPTEEAAPA | 10100 |
| MVGRGCAVQVMIYPLFFVPGFLGFGFLVCYHFPFFMSLLWVLAWLRFWLVISS | 64400 |
| FTYMDRLQLIQAPFPWRDRMALTAITEFVATYYQNMHVDITVTMRKLGYLEKL | 60800 |
| RMPKDCKSREFRDKAHDAVDAFAVDLEKRLRDENRPALLKLACLLMVLHQIEL | 58600 |
| APKEETTKPTIEVKIDVGSRCEVESTEPGLSKRGTVRFVGQTSFGNGEGVWVG | 42200 |
| PLPSPPSLPLPSPPSHSLLPLFLPFLPSLCSSLSILFPPLLLSHCPCFSFFLS | 63500 |
| MMAEGERPLATMCSVLSVCYVCVRLVLSNLIWIVLCSSPRPLPMALLSLLAHR | 32900 |
| KGEKDKENDKGEKGEGEKKGENRSRRRRGGRGRGSGDKDKEKDKDGGGGAKKA | 27800 |
| KKPAAKKQKTAPAEKINTTDDSKKARGRPKKADSNGTAKAAQKKKEPKAAATA | 32900 |
| NVRYITNLSFTSDSVYKFLLFYPLFLIMTEPIIQLLGIYLAYIYGLIYLILTS | 55800 |
| LQAAAALESNTADGEDTNMETEEDKSGADGRSVYVGNVGYRFAVLLASNQVDY | 36600 |
| KGGASPEDASAQSGGSRSKEAKETGSSPTGGKVGNSGGKSSSSSGGPEEKNKD | 35600 |
| EEEEEEEGGETKKKRRRAASAAAKGRKGGRKSTASEEDEVVGGEESENRASKK | 25400 |
| LYYTVIRLFHIYPCRDPLAANSTTFNKSLYLVWSFLCMLVYLAHISYLTLLPR | 54100 |
| NWYWLATTMYFLYGETVIYYFKHIVLVDKVLLPLATHHRFISFILYVFGFVFF | 58300 |
| EDASAGEGEEKKKRKKKKVEASSDEEGSGSDGSKRKSQSKRTKSSKKGRSDNG | 40700 |
| NSTIHNLLEVVLLPDLCGFCCFSMRFVVLLDLIGTLTLPVTCLYLIYLIYVIA | 52100 |
| LFSQLFFPREQAKGVLGWLVWILYMLEKVLFSFSKRRGFFIVCQLEFCVLILT | 40300 |
| LQHRTWLIHWSLFPLFNYEQARETLTELFFSAPYINTIQTNCPWILRYLAAAV | 28100 |

| Sequence | transcriptional activation domain activity |
| --- | --- |
| MHYRSAILCHSFILYCLVVVLGVFFKVILVLIYNRVCVPLIVLCLFSYSLSLV | 59100 |
| GKKSSGKKSGSSKKTKKDKKAEKDKTAADEKEKEEVKEKETGAEGEKTPEHSE | 37700 |
| MIRTLFLFFLFIIIFFFFFFFCFLLFFVFLFLFIFLIVVFTIRKSMNLGFVCV | 42400 |
| PGKCINEFIEVVCKLADSGRLSLRMLVDIVVLFWNLTRVHCEQFSHKFLRLLH | 15900 |
| LVLRSVILSLMVFLVIFCSEYFLFPFCHSICCYGYIYILIDSWVSFSLLVFFS | 65700 |
| TNLYDHAVTPEILLEQLAYVDNFIPSLDNEFSNVDWNVNTTHNNANNNGADTF | 47300 |
| SVEDAADTTVSTDLKAADDATTEAAADDDAPRKKHKKSKSKKDKHRRAAADAE | 11600 |
| FDNSGFQRLESLCACLAAIKSWMDIFLKFPPLEYAHLSFTFWAQLMKCIVVLY | 61900 |
| PFSFSNTDLTALFTHPEGPNCTNTNNGNVDVCNRASTDATDANIENLSFLNMA | 116000 |
| VLGQISTVLIQYLFNPAYDLLSYCFNWYLDQCIVYLLLSIILSAPTIGAFVYV | 46400 |
| LVTVRTMYRSYVEHGSGIGLTFARLITKDGLVLAISDFVLVFSTFLCVPFVKL | 44300 |
| LCASSLIWMTVSRHHLPPTIANLPATTLLILTFISLLLSIFLQFLFWALLFFW | 65300 |
| TSFVLYLKLNQVIAFSLRTIYSINKSKILLGFVGQQWEQHIVSELDSALNKWV | 37900 |
| MFLKSELHFNEPLQHILISFIFLSCLSNLALMIFSVVYKVYILLALIMLVYAN | 51900 |
| SLGCLVKQAEYQVDGRSIGMDGYLFFFFFACCCFLYTSGLSFLYLFWFFFLVF | 22900 |
| MVLCPSSYSFPLPPFFLFFFLSSPFFFAALFFFFPFLPPNSRVCPSLFPLSLL | 62600 |
| IQAEGLYDCRYSSYGIELLRYAFYFGMFLFLLRSGWYITSSVFLGTLWHQLSF | 21100 |
| LVHFILTGSDFIWFFSYTPEAVALYLFLVEWSKLNYFWVALMYIWNVMPLFLL | 63600 |
| AIENGGASDGEPKKRVRKRGGRKNKARRDSAAAAAAAAAAAAAGGQSSAALAP | < 6570 |
| PRQPRERKPRAEGEEGEHVEGQQEAGERRRERRPRKPRNKSAGGAGAGAEGAA | 17100 |
| TRSKKSAPRTSESSEDEEQRPSSRPSSRASRPASRASASRKRSDSTGTAGGGE | < 6570 |

| Sequence | transcriptional activation domain activity |
| --- | --- |
| TLMVLCENSYTTISRFILLDSMLLFFTFTTMLCFARFHNLQSRSFSFQWWLWI | 51800 |
| MGKRRRLLAKAQPKSGGSTSAKHHPQQGTGKAVAARGQKPQKQQGAPRNGSNG | 21900 |
| FGAIFVELYFIMSSIWFSKIYYMFGFLFLCYGLMILTCATVTILMVYFLLCAE | 60500 |
| SASSNTRPREPSPEPYRKPREESRDRKRHRSRDRRRDRSPGGKKSRAREGRRD | 35900 |
| GHSGNNAHSHLQKPHGHAGKTRSEVGGRSGEGGEGNGGAGGGELGKGVAAGRL | 13700 |
| MLLSMLYNSVGYQYLEDHCPQGGEYSDLLRNLINECEAILPSYEIIERYKNHF | 39500 |
| MSEPPRKRAKLACVTCNARRVKCDVTERRPCGNCIAGNVECETRESKRGKHPR | 32700 |
| ASEPVKEETKPPVEEHASEPVEEETKPVEEEIKPVEEHASEPVKEETKPAEEH | < 6570 |
| PFRIGRIVAWISYGIHQVGQWGILAKVQRAKEEWSNTYRWWNWSMVYLNGFML | 59700 |
| VEAGDGDGAPPKSAKRPRKKKEPVEEGDGDAAAPKPAKRPRKKKVDVTEAQKE | 48100 |
| NNIISNRKQASKEKRKIPRHIQTIDEKLINDSNYLAFLKFDDLENEKFHSSAS | 56600 |
| IFGSSFFLLCLFNLFFFLFFLSFLSLLFSFFLFFLFFFLFDVFTTVILSSTYG | 51800 |
| FIPLQAGIKQLIGRLSLPRHPLSNLNHLIPRHIVFTDCIWLILRQLSTLKHWA | 57800 |
| GFHHLLPVFQMLLFKLDHRLYMNIGDVAKFLNITTINVLLLQLTDLHSLINIP | 54900 |
| MMMGTIVKSFFLFTFTFSIFFFYFFPRVLFTPFFFTYWTSAFFLLLFLFFFLF | 64900 |
| SFVAYFSALWRGKQHRMTGYPIYDFFMGAELNPRMFGILDFKMFFEVRMPWYI | 67400 |
| LRALCFEAIRNKGQSVMIARLLQRYMGQLTWLRGGNGVSLLVMVVRDVLLEMQ | 58900 |
| AEHVDLVGCPVHVMTRFWHLYLPAFTLHTVLYIFTLIRVLNCENSPQALLIRR | 56600 |
| EGADVVVEGNERRKKGESVWEKNLRKGLYGVALDYVLEQASSPIIVLTVLTAL | 60900 |
| PFSFGLFLLYLCSCLTNCMTHIVFCLCSNIQLFFRFWFFYWIDHRPLGFFLAR | 44700 |
